Laboratory results as given in US20240026011A1 (Takeda / Millennium, published 2024).

Target: T1, EGFR (UniProt P00533 25-645, limits assumed)
T1 construct: also called target EGFR

Kd: 2 nM
koff: 0.00044 s⁻¹
kon: 221000 M⁻¹ s⁻¹
B1: Pro90 (hEGFR1) (other)
VHH: EVQLVESGGGLVQPGGSLRLSCAASGRTFSSYAMGWFRQAPGKEREFVVAINWSSGSTYYADSVKGRFTISRDNSKNTLYLQMNSLRAEDTAVYYCAAGYQINSGNYNFKDYEYDYWGQGTLVTVSS
